Reference: patent publication US20150344570A1 (published 2015)

T1: FcγRIIa R extracellular domain with C-terminal His tag (human, UniProt P12318 34-217)
T1 construct: extracellular domain; also called FcgRIIa R; 2aR; not shown: His tag at the C terminus
T1 sequence (looked up): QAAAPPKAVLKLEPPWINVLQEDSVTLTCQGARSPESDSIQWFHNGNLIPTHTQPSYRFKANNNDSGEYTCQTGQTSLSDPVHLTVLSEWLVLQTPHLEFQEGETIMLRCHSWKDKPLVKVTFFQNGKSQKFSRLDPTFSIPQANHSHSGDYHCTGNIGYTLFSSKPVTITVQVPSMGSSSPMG


What follows are binders tested against T1, FcγRIIa R extracellular domain with … (assay: SPR (Biacore), relative FcγRIIa R binding, GpH7-A5/GpH7-B3/GpL16-k0 = 100).

He/Con_2aR | Binder
110 % of control | GpH7-A5/GpH7-B3 variant P331_20W/GpL16-k0 (antibody, human IgG1, kappa, heterodimerized: alteration in one H chain only; also called He Ab P331_20W) heavy 1: not shown heavy 2: not shown light: DIVMTQSPLSLPVTPGEPASISCQASESLVHSNRNTYLHWYLQKPGQSPQLLIYKVSNRFSGVPDRFSGSGSGTDFTLKISRVEAEDVGVYYCSQNTHVPPTFGQGTKVEIERTVAAPSVFIFPPSDEQLKSGTASVVCLLNNFYPREAKVQWKVDNALQSGNSQESVTEQDSKDSTYSLSSTLTLSKADYEKHKVYACEVTHQGLSSPVTKSFNRGEC
106 % of control | GpH7-A5/GpH7-B3 variant S337_03V/GpL16-k0 (antibody, human IgG1, kappa, heterodimerized: alteration in one H chain only; also called He Ab S337_03V) heavy 1: not shown heavy 2: not shown light: DIVMTQSPLSLPVTPGEPASISCQASESLVHSNRNTYLHWYLQKPGQSPQLLIYKVSNRFSGVPDRFSGSGSGTDFTLKISRVEAEDVGVYYCSQNTHVPPTFGQGTKVEIERTVAAPSVFIFPPSDEQLKSGTASVVCLLNNFYPREAKVQWKVDNALQSGNSQESVTEQDSKDSTYSLSSTLTLSKADYEKHKVYACEVTHQGLSSPVTKSFNRGEC
115 % of control | GpH7-A5/GpH7-B3 variant S337_09D/GpL16-k0 (antibody, human IgG1, kappa, heterodimerized: alteration in one H chain only; also called He Ab S337_09D) heavy 1: not shown heavy 2: not shown light: DIVMTQSPLSLPVTPGEPASISCQASESLVHSNRNTYLHWYLQKPGQSPQLLIYKVSNRFSGVPDRFSGSGSGTDFTLKISRVEAEDVGVYYCSQNTHVPPTFGQGTKVEIERTVAAPSVFIFPPSDEQLKSGTASVVCLLNNFYPREAKVQWKVDNALQSGNSQESVTEQDSKDSTYSLSSTLTLSKADYEKHKVYACEVTHQGLSSPVTKSFNRGEC
122 % of control | GpH7-A5/GpH7-B3 variant S267_06M/GpL16-k0 (antibody, human IgG1, kappa, heterodimerized: alteration in one H chain only; also called He Ab S267_06M) heavy 1: not shown heavy 2: not shown light: DIVMTQSPLSLPVTPGEPASISCQASESLVHSNRNTYLHWYLQKPGQSPQLLIYKVSNRFSGVPDRFSGSGSGTDFTLKISRVEAEDVGVYYCSQNTHVPPTFGQGTKVEIERTVAAPSVFIFPPSDEQLKSGTASVVCLLNNFYPREAKVQWKVDNALQSGNSQESVTEQDSKDSTYSLSSTLTLSKADYEKHKVYACEVTHQGLSSPVTKSFNRGEC
112 % of control | GpH7-A5/GpH7-B3 variant S337_10E/GpL16-k0 (antibody, human IgG1, kappa, heterodimerized: alteration in one H chain only; also called He Ab S337_10E) heavy 1: not shown heavy 2: not shown light: DIVMTQSPLSLPVTPGEPASISCQASESLVHSNRNTYLHWYLQKPGQSPQLLIYKVSNRFSGVPDRFSGSGSGTDFTLKISRVEAEDVGVYYCSQNTHVPPTFGQGTKVEIERTVAAPSVFIFPPSDEQLKSGTASVVCLLNNFYPREAKVQWKVDNALQSGNSQESVTEQDSKDSTYSLSSTLTLSKADYEKHKVYACEVTHQGLSSPVTKSFNRGEC
105 % of control | GpH7-A5/GpH7-B3 variant S298_08L/GpL16-k0 (antibody, human IgG1, kappa, heterodimerized: alteration in one H chain only; also called He Ab S298_08L) heavy 1: not shown heavy 2: not shown light: DIVMTQSPLSLPVTPGEPASISCQASESLVHSNRNTYLHWYLQKPGQSPQLLIYKVSNRFSGVPDRFSGSGSGTDFTLKISRVEAEDVGVYYCSQNTHVPPTFGQGTKVEIERTVAAPSVFIFPPSDEQLKSGTASVVCLLNNFYPREAKVQWKVDNALQSGNSQESVTEQDSKDSTYSLSSTLTLSKADYEKHKVYACEVTHQGLSSPVTKSFNRGEC
109 % of control | GpH7-A5/GpH7-B3 variant S337_16H/GpL16-k0 (antibody, human IgG1, kappa, heterodimerized: alteration in one H chain only; also called He Ab S337_16H) heavy 1: not shown heavy 2: not shown light: DIVMTQSPLSLPVTPGEPASISCQASESLVHSNRNTYLHWYLQKPGQSPQLLIYKVSNRFSGVPDRFSGSGSGTDFTLKISRVEAEDVGVYYCSQNTHVPPTFGQGTKVEIERTVAAPSVFIFPPSDEQLKSGTASVVCLLNNFYPREAKVQWKVDNALQSGNSQESVTEQDSKDSTYSLSSTLTLSKADYEKHKVYACEVTHQGLSSPVTKSFNRGEC
105 % of control | GpH7-A5/GpH7-B3 variant S337_06M/GpL16-k0 (antibody, human IgG1, kappa, heterodimerized: alteration in one H chain only; also called He Ab S337_06M) heavy 1: not shown heavy 2: not shown light: DIVMTQSPLSLPVTPGEPASISCQASESLVHSNRNTYLHWYLQKPGQSPQLLIYKVSNRFSGVPDRFSGSGSGTDFTLKISRVEAEDVGVYYCSQNTHVPPTFGQGTKVEIERTVAAPSVFIFPPSDEQLKSGTASVVCLLNNFYPREAKVQWKVDNALQSGNSQESVTEQDSKDSTYSLSSTLTLSKADYEKHKVYACEVTHQGLSSPVTKSFNRGEC
107 % of control | GpH7-A5/GpH7-B3 variant S337_18N/GpL16-k0 (antibody, human IgG1, kappa, heterodimerized: alteration in one H chain only; also called He Ab S337_18N) heavy 1: not shown heavy 2: not shown light: DIVMTQSPLSLPVTPGEPASISCQASESLVHSNRNTYLHWYLQKPGQSPQLLIYKVSNRFSGVPDRFSGSGSGTDFTLKISRVEAEDVGVYYCSQNTHVPPTFGQGTKVEIERTVAAPSVFIFPPSDEQLKSGTASVVCLLNNFYPREAKVQWKVDNALQSGNSQESVTEQDSKDSTYSLSSTLTLSKADYEKHKVYACEVTHQGLSSPVTKSFNRGEC
135 % of control | GpH7-A5/GpH7-B3 variant S267_19Q/GpL16-k0 (antibody, human IgG1, kappa, heterodimerized: alteration in one H chain only; also called He Ab S267_19Q) heavy 1: not shown heavy 2: not shown light: DIVMTQSPLSLPVTPGEPASISCQASESLVHSNRNTYLHWYLQKPGQSPQLLIYKVSNRFSGVPDRFSGSGSGTDFTLKISRVEAEDVGVYYCSQNTHVPPTFGQGTKVEIERTVAAPSVFIFPPSDEQLKSGTASVVCLLNNFYPREAKVQWKVDNALQSGNSQESVTEQDSKDSTYSLSSTLTLSKADYEKHKVYACEVTHQGLSSPVTKSFNRGEC
111 % of control | GpH7-A5/GpH7-B3 variant S239_18N/GpL16-k0 (antibody, human IgG1, kappa, heterodimerized: alteration in one H chain only; also called He Ab S239_18N) heavy 1: not shown heavy 2: not shown light: DIVMTQSPLSLPVTPGEPASISCQASESLVHSNRNTYLHWYLQKPGQSPQLLIYKVSNRFSGVPDRFSGSGSGTDFTLKISRVEAEDVGVYYCSQNTHVPPTFGQGTKVEIERTVAAPSVFIFPPSDEQLKSGTASVVCLLNNFYPREAKVQWKVDNALQSGNSQESVTEQDSKDSTYSLSSTLTLSKADYEKHKVYACEVTHQGLSSPVTKSFNRGEC
